Experimental data as given in patent publication US20220235109A1 (CUGENE, published 2022).
Positions count from the first letter of the chain named. In names and notes the source's numbering stands.

Columns and labels:
[1] = target: PD-1 on PD-1 positive T cells (Tregs) of human PBMC (human, UniProt Q15116 25-288); experiment: cell-based or functional assay
huPD-1-His = huPD-1-His (human, UniProt Q15116 25-167, limits assumed); experiment: ELISA, huPD-1-His coated
Protocol: A panel of IL-2 muteins was expressed as C-terminal fusions to the Fc homodimer of Fc heterodimer and screened for binding to IL-2Rα in enzyme-linked immunosorbent assay (ELISA). Briefly, IL-2Rα-ECD (SEQ ID NO: 5) was coated onto the wells of Nunc Maxisorp 96-well microplates at 0.1 μg/well. After overnight incubation at 4° C. and blocking with superblock (Thermo Fisher), 3-fold serial dilutions of IL-2 Fc fusion proteins starting at 100 nM were added to each well at 100 μI/well. Following one-hour incubation at room temperature, 100 μl/well of goat anti-human IgG Fc-HRP (1:5000 diluted in diluent) were added to each well and incubated at room temperature for 1 hour. Wells were thoroughly aspirated and washed three times with PBS/0.05% Tween-20 following each step. Finally, 100 μl TMB substrate was added to each well; the plate was developed at room temperature in the dark for 10 minutes, and 100 μl/well of stop solution (2N Sulfuric acid, Ricca Chemical) was added. Absorbance was determined at 450 nm and curves were fit using Prism software (Graph Pad).
(§1) For direct binding, the same ELISA protocol in Example 4 was followed using huPD-1-His as the coating antigen. […] Briefly, plate was coated with 0.2 μg/well of human PD1-Fc protein at 4° C. for overnight. […] Streptavidin-HRP was added as the secondary antibody.

human PD1-Fc protein = human PD1-Fc protein (human, UniProt Q15116 25-167, limits assumed); experiment: competition ELISA, human PD1-Fc coated, biotinylated Human PDL1-Fc at 0.5 µg/mL as the ligand displaced
Protocol: as §1

[2] = target: T1, IL-2Rβγ on human CD8+ T cells, NK cells and CD4+ T cells (human, UniProt P14784 27-551; P31785 23-369); experiment: cell-based or functional assay
T1 sequence (looked up) 1: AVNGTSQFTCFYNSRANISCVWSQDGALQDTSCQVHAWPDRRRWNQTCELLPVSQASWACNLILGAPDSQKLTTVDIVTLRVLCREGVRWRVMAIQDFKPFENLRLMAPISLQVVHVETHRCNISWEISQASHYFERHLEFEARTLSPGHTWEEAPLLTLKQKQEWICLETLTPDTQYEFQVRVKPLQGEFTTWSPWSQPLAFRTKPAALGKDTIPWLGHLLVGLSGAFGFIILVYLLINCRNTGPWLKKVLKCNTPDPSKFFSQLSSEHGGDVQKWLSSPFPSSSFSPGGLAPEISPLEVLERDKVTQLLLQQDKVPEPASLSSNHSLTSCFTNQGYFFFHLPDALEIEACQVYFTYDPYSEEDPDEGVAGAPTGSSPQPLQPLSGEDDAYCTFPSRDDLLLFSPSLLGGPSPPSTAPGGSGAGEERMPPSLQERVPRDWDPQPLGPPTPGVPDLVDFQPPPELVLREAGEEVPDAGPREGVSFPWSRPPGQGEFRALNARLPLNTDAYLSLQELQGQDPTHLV
T1 sequence (looked up) 2: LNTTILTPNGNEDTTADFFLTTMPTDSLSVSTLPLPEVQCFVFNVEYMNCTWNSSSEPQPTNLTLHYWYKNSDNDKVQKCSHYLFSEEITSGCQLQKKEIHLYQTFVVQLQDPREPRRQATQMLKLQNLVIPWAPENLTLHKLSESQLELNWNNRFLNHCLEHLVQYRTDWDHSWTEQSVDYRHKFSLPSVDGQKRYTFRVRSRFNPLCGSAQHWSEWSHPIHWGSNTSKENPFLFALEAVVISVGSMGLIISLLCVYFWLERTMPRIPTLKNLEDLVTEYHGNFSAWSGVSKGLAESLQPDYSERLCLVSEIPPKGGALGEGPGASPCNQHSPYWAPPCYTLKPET

[3] = target: T2, recombinant IL-2Rβγ heterodimer (human); experiment: ELISA, IL-2Rβγ-Fc heterodimer coated
T2 construct: IL-2Rβ ECD at the N-terminus of Fc hole chain, γc ECD at the N-terminus of Fc knob chain; also called recombinant IL-2Rβγ protein; dimeric IL-2Rβγ receptor
T2 chain 1: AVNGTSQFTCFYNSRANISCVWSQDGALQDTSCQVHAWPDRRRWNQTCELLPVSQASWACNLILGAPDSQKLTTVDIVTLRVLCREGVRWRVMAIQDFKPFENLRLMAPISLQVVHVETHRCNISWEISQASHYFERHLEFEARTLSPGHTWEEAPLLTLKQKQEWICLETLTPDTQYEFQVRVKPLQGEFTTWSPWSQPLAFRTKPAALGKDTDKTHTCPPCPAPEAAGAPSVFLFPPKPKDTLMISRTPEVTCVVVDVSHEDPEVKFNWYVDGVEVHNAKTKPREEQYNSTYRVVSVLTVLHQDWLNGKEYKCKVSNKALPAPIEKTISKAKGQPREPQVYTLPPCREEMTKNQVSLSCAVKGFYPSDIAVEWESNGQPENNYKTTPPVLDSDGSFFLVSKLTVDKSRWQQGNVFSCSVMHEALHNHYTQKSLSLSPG
T2 chain 2: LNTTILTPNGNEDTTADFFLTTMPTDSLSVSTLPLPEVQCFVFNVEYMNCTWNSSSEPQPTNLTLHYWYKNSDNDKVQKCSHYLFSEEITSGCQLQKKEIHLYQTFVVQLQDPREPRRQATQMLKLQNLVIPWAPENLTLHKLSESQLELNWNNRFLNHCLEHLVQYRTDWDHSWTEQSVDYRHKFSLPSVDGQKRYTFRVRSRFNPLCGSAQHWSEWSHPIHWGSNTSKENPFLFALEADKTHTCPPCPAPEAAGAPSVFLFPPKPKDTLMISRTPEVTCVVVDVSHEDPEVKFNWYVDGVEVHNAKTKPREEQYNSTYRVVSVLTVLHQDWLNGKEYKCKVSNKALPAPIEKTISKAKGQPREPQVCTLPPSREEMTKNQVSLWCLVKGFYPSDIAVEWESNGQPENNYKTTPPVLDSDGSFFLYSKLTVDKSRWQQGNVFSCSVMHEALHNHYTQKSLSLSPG
Protocol: After overnight incubation at 4° C. and blocking with 1% BSA, 3-fold serial dilutions of IL-2 Fc fusion proteins starting at 10 nM were added to each well at 100 μl/well. […] Subsequently, 100 μl/well of streptavidin-HRP (1:5000 diluted in diluent) were added to each well and incubated at room temperature for 40 min. Wells were thoroughly aspirated and washed three times with PBS/0.05% Tween-20 following each step. Finally, 100 μl TMB substrate was added to each well; the plate was developed at room temperature in the dark for 10 minutes, and 100 μl/well of stop solution (2N Sulfuric acid, Ricca Chemical) was added. Absorbance was determined at 450 nm and curves were fit using Prism software (GraphPad).

[4] = target: T3, PD1 expressed on cell surface (UniProt Q15116 25-288, limits assumed); experiment: FACS on PD-1-expressing cells
T3 construct: whole, on cells; also called PD-1-expressing cells; cell surface expressed PD-1
T3 sequence (Q15116 25-288 limits assumed): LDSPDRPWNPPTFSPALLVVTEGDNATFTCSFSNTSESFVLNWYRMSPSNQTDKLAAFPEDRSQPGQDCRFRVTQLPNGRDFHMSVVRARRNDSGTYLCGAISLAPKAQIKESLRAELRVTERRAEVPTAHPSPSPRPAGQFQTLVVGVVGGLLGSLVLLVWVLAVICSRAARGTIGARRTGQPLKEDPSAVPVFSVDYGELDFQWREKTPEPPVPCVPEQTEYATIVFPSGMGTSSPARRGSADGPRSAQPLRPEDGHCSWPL

huPD-1-His, sequence (Q15116 25-167 limits assumed): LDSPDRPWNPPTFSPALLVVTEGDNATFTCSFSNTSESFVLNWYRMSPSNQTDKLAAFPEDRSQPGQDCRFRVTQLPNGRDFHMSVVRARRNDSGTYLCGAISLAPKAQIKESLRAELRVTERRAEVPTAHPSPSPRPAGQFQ
human PD1-Fc protein, sequence (Q15116 25-167 limits assumed): as above
PD-1 on PD-1 positive T cells (Tregs) of human PBMC, sequence (Q15116 25-288): as the sequence (Q15116 25-288 limits assumed) above

B1: P-0803 (antibody, human IgG1, kappa)
heavy 1: not shown
heavy 2: EVQLVESGGGLVKPGGSLRLSCAASGFTFSSYDMSWVRQAPGKGLEWVATISGGGSYTYYPDSVKGRFTISRDNAKNSLYLQMNSLRAEDTAVYYCASPDSSGVAYWGQGTLVTVSSASTKGPSVFPLAPSSKSTSGGTAALGCLVKDYFPEPVTVSWNSGALTSGVHTFPAVLQSSGLYSLSSVVTVPSSSLGTQTYICNVNHKPSNTKVDKKVEPKSCDKTHTCPPCPAPEAAGAPSVFLFPPKPKDTLMISRTPEVTCVVVDVSHEDPEVKFNWYVDGVEVHNAKTKPREEQYNSTYRVVSVLTVLHQDWLNGKEYKCKVSNKALPAPIEKTISKAKGQPREPQVYTLPPCREEMTKNQVSLSCAVKGFYPSDIAVEWESNGQPENNYKTTPPVLDSDGSFFLVSKLTVDKSRWQQGNVFSCSVMHEALHNHYTQKSLSLSPG
light: DIVMTQSPLSLPVTPGEPASITCKASQDVETVVAWYLQKPGQSPRLLIYWASTRHTGVPDRFSGSGSGTDFTLKISRVEAEDVGVYYCQQYSRYPWTFGQGTKLEIKRTVAAPSVFIFPPSDEQLKSGTASVVCLLNNFYPREAKVQWKVDNALQSGNSQESVTEQDSKDSTYSLSSTLTLSKADYEKHKVYACEVTHQGLSSPVTKSFNRGEC
notes: also called IL-2 P65R/S125I human PD-1 antibody fusion, (G3S)2 linker
- pSTAT5 in PD-1 positive T cells (human PBMC), potency against P-0782 [1]: > 15 fold
- EC50 (huPD-1-His): 0.6 nM
- IC50 (human PD1-Fc protein): 2.1 nM

B2: P-0795 (antibody, human IgG1, kappa, V domains shown)
VH: EVQLVESGGGLVKPGGSLRLSCAASGFTFSSYDMSWVRQAPGKGLEWVATISGGGSYTYYPDSVKGRFTISRDNAKNSLYLQMNSLRAEDTAVYYCASPDSSGVAYWGQGTLVTVSS
VL: DIVMTQSPLSLPVTPGEPASITCKASQDVETVVAWYLQKPGQSPRLLIYWASTRHTGVPDRFSGSGSGTDFTLKISRVEAEDVGVYYCQQYSRYPWTFGQGTKLEIKR
notes: full heavy and light chains; also called human PD-1 antagonist antibody; hPD1 antibody
- EC50 (huPD-1-His): 0.6 nM
- IC50 (human PD1-Fc protein): 2.1 nM

B3: P-0731 (Fc fusion)
chain 1: DKTHTCPPCPAPEAAGAPSVFLFPPKPKDTLMISRTPEVTCVVVDVSHEDPEVKFNWYVDGVEVHNAKTKPREEQYNSTYRVVSVLTVLHQDWLNGKEYKCKVSNKALPAPIEKTISKAKGQPREPQVCTLPPSREEMTKNQVSLWCLVKGFYPSDIAVEWESNGQPENNYKTTPPVLDSDGSFFLYSKLTVDKSRWQQGNVFSCSVMHEALHNHYTQKSLSLSPGGGGSGGGSAPTSSSTKKTQLQLEHLLHDLQMILNGINNYKNPKLTRMLTFKFYMPKKATELKHLQCLEEELKRLEEVLNLAQSKNFHLRPRDLISNINVIVLELKGSETTFMCEYADETATIVEFLNRWITFIQSIISTLT
chain 2: DKTHTCPPCPAPEAAGAPSVFLFPPKPKDTLMISRTPEVTCVVVDVSHEDPEVKFNWYVDGVEVHNAKTKPREEQYNSTYRVVSVLTVLHQDWLNGKEYKCKVSNKALPAPIEKTISKAKGQPREPQVYTLPPCREEMTKNQVSLSCAVKGFYPSDIAVEWESNGQPENNYKTTPPVLDSDGSFFLVSKLTVDKSRWQQGNVFSCSVMHEALHNHYTQKSLSLSPG
notes: knob chain carries the IL-2 variant; hole-Fc; monovalent; also called IL-2 L19H/P65R/S125I monovalent Fc fusion
- fold decrease in Ki67 expression on human CD8+ T cells (potency against P-0704) [2]: ~30 fold
- fold decrease in proliferation (Ki67) of human CD8+ T cells, NK cells and CD4+ T cells (potency against P-0704) [2]: 30 fold
- binding result [3]: binds

B4: P-0759 (Fc fusion)
chain 1: B3 chain 1 with H253Q
chain 2: B3 chain 2
notes: knob chain carries the IL-2 variant; hole-Fc; monovalent; also called IL-2 L19Q/P65R/S125I monovalent Fc fusion
- binding result [4]: no binding
- binding result [3]: binds

B5: P-0761 (Fc fusion)
chain 1: B3 chain 1 with H253Y
chain 2: B3 chain 2
notes: knob chain carries the IL-2 variant; hole-Fc; monovalent; also called IL-2 L19Y/P65R/S125I monovalent Fc fusion
- binding result [3]: binds
